Results from patent US20260035431A1 (CAVALRY BIOSCIENCES, published 2026).
Numbering of substitutions follows the chain as printed. Names may count otherwise. One block for each binder: values may come before it.

What was measured:
Test in all cases: cell-based or functional assay
[1] = target: T1, IGF1 receptor (IGF1R) on DU145 cells or immortalized human meibomian gland epithelial cells (human, UniProt P08069 31-1367)
[2] = target: IGFBP3 (UniProt P17936 28-291)
[3] = target: T1, IGF1 receptor (IGF1R) on DU145 cells or …; remark: listed apart in the source
[4] = target: T2, IGFBP2 (UniProt P18065 37-325, limits assumed)
T2 sequence (looked up): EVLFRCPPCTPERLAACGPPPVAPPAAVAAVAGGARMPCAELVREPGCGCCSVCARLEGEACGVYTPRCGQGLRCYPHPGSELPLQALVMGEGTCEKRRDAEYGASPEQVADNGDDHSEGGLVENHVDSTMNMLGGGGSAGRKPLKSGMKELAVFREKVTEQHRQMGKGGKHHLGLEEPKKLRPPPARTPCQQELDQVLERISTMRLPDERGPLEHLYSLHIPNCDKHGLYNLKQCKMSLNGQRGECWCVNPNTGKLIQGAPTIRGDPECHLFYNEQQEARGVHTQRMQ

Sequence of IGFBP3 (P17936 28-291 limits assumed): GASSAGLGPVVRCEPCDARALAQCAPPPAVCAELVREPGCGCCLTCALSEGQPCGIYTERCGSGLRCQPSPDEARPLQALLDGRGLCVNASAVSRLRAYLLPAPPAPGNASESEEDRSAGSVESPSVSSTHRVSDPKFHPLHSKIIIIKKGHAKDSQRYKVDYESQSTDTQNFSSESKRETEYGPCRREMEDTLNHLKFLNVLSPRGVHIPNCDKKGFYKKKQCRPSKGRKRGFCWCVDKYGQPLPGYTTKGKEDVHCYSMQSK
T1 sequence (P08069 31-1367): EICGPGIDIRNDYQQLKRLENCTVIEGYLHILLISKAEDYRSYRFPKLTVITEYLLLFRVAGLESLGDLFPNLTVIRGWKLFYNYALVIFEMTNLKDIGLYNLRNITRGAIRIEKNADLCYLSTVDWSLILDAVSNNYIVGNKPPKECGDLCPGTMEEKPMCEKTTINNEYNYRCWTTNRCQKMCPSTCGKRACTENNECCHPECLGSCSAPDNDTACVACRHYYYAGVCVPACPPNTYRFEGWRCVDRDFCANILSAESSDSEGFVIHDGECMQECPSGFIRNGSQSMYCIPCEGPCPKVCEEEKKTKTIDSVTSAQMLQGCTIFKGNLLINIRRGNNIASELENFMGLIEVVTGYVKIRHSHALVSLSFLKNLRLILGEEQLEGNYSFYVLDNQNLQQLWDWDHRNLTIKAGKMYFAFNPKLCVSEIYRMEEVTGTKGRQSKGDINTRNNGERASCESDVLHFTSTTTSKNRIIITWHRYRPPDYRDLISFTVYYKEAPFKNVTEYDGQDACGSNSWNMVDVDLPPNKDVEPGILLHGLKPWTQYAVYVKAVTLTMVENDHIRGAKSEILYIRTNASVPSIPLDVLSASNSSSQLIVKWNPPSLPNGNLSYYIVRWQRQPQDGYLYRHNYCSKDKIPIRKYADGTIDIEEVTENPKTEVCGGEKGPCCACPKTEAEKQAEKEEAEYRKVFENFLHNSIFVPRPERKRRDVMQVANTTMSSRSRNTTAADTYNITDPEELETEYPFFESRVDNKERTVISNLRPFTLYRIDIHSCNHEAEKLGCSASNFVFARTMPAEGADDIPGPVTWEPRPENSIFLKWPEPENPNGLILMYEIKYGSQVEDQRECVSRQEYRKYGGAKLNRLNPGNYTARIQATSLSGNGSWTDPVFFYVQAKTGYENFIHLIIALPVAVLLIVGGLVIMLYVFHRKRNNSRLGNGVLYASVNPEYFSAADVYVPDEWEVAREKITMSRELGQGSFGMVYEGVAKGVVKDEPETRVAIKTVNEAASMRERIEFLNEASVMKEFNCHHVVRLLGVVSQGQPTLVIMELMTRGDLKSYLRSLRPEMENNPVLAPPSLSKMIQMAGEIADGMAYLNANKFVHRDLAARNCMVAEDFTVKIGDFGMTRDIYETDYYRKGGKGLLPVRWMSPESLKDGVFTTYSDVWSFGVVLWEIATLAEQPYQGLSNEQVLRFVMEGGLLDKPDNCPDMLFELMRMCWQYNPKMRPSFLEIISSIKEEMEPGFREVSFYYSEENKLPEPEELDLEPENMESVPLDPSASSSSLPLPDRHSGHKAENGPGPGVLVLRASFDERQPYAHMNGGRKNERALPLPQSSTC

B1: IGF-1 Des1-3 (SEQ ID NO: 8) as tested in Example 1 (ligand)
chain: MRAAAPAVAATLCGAELVDALQFVCGDRGFYFNKPTGYGSSSRRAPQTGIVDECCFRSCDLRRLEMYCAPLKPAKSA
EC50, AKT S473 phosphorylation in DU145 cells [1]: 2.3 nM

B5: IGF-1 Des1-3 R37X (ligand)
chain: TLCGAELVDALQFVCGDRGFYFNKPTGYGSSSRAPQTGIVDECCFRSCDLRRLEMYCAPLKPAKSA
EC50, AKT S473 phosphorylation in DU145 cells [1]: 4.1 nM

Further lines, with some results ahead:

% Activity compared to no IGFBP, 4x BP3 [2]: 342%
% Activity compared to no IGFBP, 4x BP2 [4]: 357%
B2: E3R-F49L-D12A (ligand)
chain: GPRTLCGAELVAALQFVCGDRGFYFNKPTGYGSSSRRAPQTGIVDECCLRSCDLRRLEMYCAPLKPAKSA
EC50 (nM), P-AKT in DU145 cells [3]: 17.7 nM

% Activity compared to no IGFBP, 4x BP3 [2]: 344%
% Activity compared to no IGFBP, 4x BP2 [4]: 456%
B3: E3R-F49L-D12A-L54A (ligand)
chain: B2 chain with L54A
EC50 (nM), P-AKT in DU145 cells [3]: 68.1 nM

% Activity compared to no IGFBP, 4x BP3 [2]: 239%
% Activity compared to no IGFBP, 4x BP2 [4]: 175%
B4: E3R-F49L-L54A (ligand)
chain: B2 chain with A12D, L54A
EC50 (nM), P-AKT in DU145 cells [3]: 11.4 nM
